In test [1] the target is T1, FGF-8 (Homo sapiens, UniProt P55075).
T1 construct: purchased R & D
T1 sequence (P55075 23-215 isoform P55075-3 limits assumed): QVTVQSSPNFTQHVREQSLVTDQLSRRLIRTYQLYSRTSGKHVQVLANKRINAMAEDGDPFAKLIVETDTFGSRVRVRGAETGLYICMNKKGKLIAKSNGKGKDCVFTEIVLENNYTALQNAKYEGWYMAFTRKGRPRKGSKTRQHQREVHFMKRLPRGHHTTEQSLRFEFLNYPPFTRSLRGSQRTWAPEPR
Description: FGF-8 binding activity by BIAcore 2000, immobilized FGF-8. Particulars: antibody 50 μg/mL; FGF-8 immobilized 4498 RU. As to the method: In order to examine the FGF-8 binding activity of the various anti-FGF-8 neutralizing CDR-grafted antibodies obtained in 4. of Reference Example 2 in more detail, the FGF-8 binding activity of the various anti-FGF-8 neutralizing CDR-grafted antibodies was measured and compared in the following manner using BIAcore2000 (manufactured by BIACORE). The YB2/0 cell-derived anti-FGF-8 neutralizing chimeric antibody KM3334 obtained in 3.(2) of Reference Example 1 was used as a positive control.
HBS-EP (manufactured by BIACORE) was used hereinafter as a sample diluent and a buffer during measurement. First, Sensor Chip CM5 (manufactured by BIACORE) was installed, and FGF-8 (manufactured by R & D) dissolved in 31.25 μg/mL of 10 mmol/L acetate buffer solution (pH 4.0) was immobilized on the surface of the sensor chip by the amine coupling method. The immobilization amount measured by using a resonance signal (RU) as an index was 4498 RU.
60 μL of each of the antibody solutions was added to an FGF-8 immobilized flow cell at a flow rate of 20 μL/min, and the dissociation reaction was then monitored for 3 minutes. After the dissociation reaction, 20 μL of a 10 mmol/L glycine-hydrochloride solution (pH 1.5) was added to the flow cell twice continuously to regenerate the surface of the chip. This cycle was performed with the antibody solution at various concentrations (from 50 to 0.068 μg/mL) to obtain sensor grams at various concentrations. The sensor grams of the respective antibodies were converted to sensor grams of specific reactions by deducing a sensor gram obtained using chimeric antibody KM871 (Shitara K. et al., Cancer Immunol. Immunother., 36, 373-380, 1993) to GD3 as a negative control. […] Accordingly, the binding activity of the various antibodies was compared in terms of the binding [resonance signal (RU)] in the binding reaction. […] The effect of restoring the binding activity was not observed in the 6 amino acid residues of FR of VH.

Test [2] addresses T1, FGF-8. Description: FGF-8 neutralizing activity: FGF-8-dependent growth of mouse breast cancer cell line SC-3. The format is cell-based. The note with it: SC-3 cells, FGF-8 50 ng/mL, WST-1. As to the method:
The FGF-8 neutralizing activity of the purified anti-FGF-8 neutralizing chimeric antibody was evaluated by measured the following FGF-8-dependent growth inhibitory effect of mouse breast cancer cell line SC-3 (Tanaka A. et al., Proc. Natl. Acad. Sci. USA, 89, 8928-8932, 1992) described below. That is, SC-3 cells were suspended at a concentration of 3.0×10^4 cells/mL in DMEM:Ham's F12 (1:1) medium [a mixed medium of DMEM medium and Ham's F12 medium (manufactured by Invitrogen) at a ratio of 1:1] containing activated charcoal-treated FBS at a concentration of 2%. The suspension was inoculated on a 96-well plate in an amount of 150 μL (4.5×10^3 cells)/well. After the culturing in a 5% CO2 incubator at 37° C. for 18 hours, the medium was replaced with 100 μL/well of a test medium. The test medium was produced by dissolving 50 ng/mL of FGF-8 (manufactured by R & D) and the anti-FGF-8 neutralizing chimeric antibody at each dilute concentration in DMEM:Ham's F12 (1:1) medium containing 0.1% BSA. The chimeric antibody KM2760 to human chemokine CCR4 described in WO 01/64754 was used as an antibody of a negative control. After the culturing in a 5% CO2 incubator at 37° C. for 48 hours, the medium was replaced with a freshly prepared test medium, and the culturing was further performed for 48 hours. WST-1 Reagent (manufactured by Roche) was added in an amount of 10 μL/well, and the mixture was culturing in a 5% CO2 incubator at 37° C. for 1 hour while being gently stirred. Then, absorbance (OD450,650) was measured. In FIG. 21, the abscissa represents a concentration of an antibody added, and the ordinate represents relative growth (%) to growth when adding 50 ng/mL of FGF-8 alone. The relative growth (%) to growth when adding 50 ng/mL of FGF-8 alone was calculated by the following formula. Relative growth (%) to growth when adding FGF-8={(Absorbance when adding FGF-8 and antibody−Absorbance when not adding FGF-8 and antibody)/(Absorbance when adding FGF-8 alone−Absorbance when not adding FGF-8 and antibody)}×100
For orientation: Tetrazolium assays rely on reduction of a dye to a coloured formazan, in cell work by metabolically active cells.

Test [3] concerns the target T2, compound 1 as a partial peptide of FGF-8 (Homo sapiens, UniProt P55075).
T2 construct: 17; made in house; host or cells: chemical synthesis
T2 sequence (P55075 with tags, fused parts or gaps isoform P55075-3 limits assumed): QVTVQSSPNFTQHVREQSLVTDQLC
Description: FGF-8 binding activity by BIAcore 2000, immobilized biotin-labeled compound 1. Particulars: antibody 16.7 μg/mL; FGF-8 peptide immobilized 35 RU. As to the method:
In order to examine the FGF-8 binding activity of the anti-FGF-8 neutralizing CDR-grafted antibodies obtained in 5. of Reference Example 3, the FGF-8 binding activity of the various anti-FGF-8 neutralizing CDR-grafted antibodies was measured and compared through BIAcore 2000 using compound 1 as a partial peptide of FGF-8 with the C terminal labeled with biotin in the following manner. The anti-FGF-8 neutralizing chimeric antibody KM3034 derived from CHO/DG44 cells obtained in 3. (1) of Reference Example 1 was used as a positive control.
HBS-EP was used as a sample diluent and a buffer during measurement. First, Sensor Chip SA (manufactured by BIACORE) was installed, and 5 μL of compound 1 labeled with biotin which had been adjusted to 0.05 μg/mL was added at a flow rate of 5 μL/min. Then, 5 μL of a 10 mmol/L glycine-hydrochloride solution (pH 1.5) was added twice continuously to wash the tip surface. The immobilization amount of the FGF-8 peptide was 35 RU.
60 μL of each of the antibody solutions was added to an FGF-8 peptide immobilized flow cell at a flow rate of 20 μL/min, and the dissociation reaction was then monitored for 3 minutes. After the dissociation reaction, 20 μL of 10 mmol/L glycine-hydrochloride solution (pH 1.5) was added twice continuously to regenerate the chip surface. This cycle was performed on the antibody solution at various concentrations (from 50 to 1.85 μg/mL) to obtain sensor grams at various concentrations. The sensor grams of the respective antibodies were converted to sensor grams of specific reactions by deduceing a sensor gram obtained using the chimeric antibody KM871 to GD3 as a negative control.
A general note: In SPR one partner is held on a chip, and binding of the other changes the refractive index at the surface.

Where a chain is given by its changes, count along the chain named.

B1: HV0LV0: YB2/0 cell-derived anti-FGF-8 neutralizing CDR-grafted antibody, VH HV.0 (SEQ ID NO. 18), VL LV.0 (SEQ ID NO. 19) (antibody, V domains shown)
VH: QVQLVQSGAEVKKPGASVKVSCKASGYTFTDYYLNWVRQAPGQGLEWMGEIDPGSDSIYYNENLEGRVTITADTSTSTAYMELSSLRSEDTAVYYCARYGYSRYDVRFVYWGQGTLVTVSS
VL: DIVMTQSPLSLPVTPGEPASISCRSSQSLVHSNGRTYLEWYLQKPGQSPQLLIYKVSNRISGVPDRFSGSGSGTDFTLKISRVEAEDVGVYYCFQGSHVPYTFGQGTKVEIK
modifications: HV.0, a designed amino acid sequence of VH of an anti-FGF-8 CDR-grafted neutralizing antibody; LV.0, a designed amino acid sequence of VL of an anti-FGF-8 CDR-grafted neutralizing antibody
Turning to B1, the “binding reaction [resonance signal (RU)]” value in test [1] is “slightly low in comparison to KM3334 and HV0LV6”.

B2: HV0LV2-1/CHO: CHO/DG44 cell-derived anti-FGF-8 neutralizing CDR-grafted antibody, VH HV.0, VL LV.2-1 (SEQ ID NO. 46) (antibody, V domains shown)
VH: B1 VH
VL: B1 VL with L51V, Y92F
Turning to B2, in test [2], the “FGF-8 neutralizing activity (SC-3 cell growth inhibitory activity)” value is “the lowest neutralizing activity”. Also, in test [3], the “binding reaction [resonance signal (RU)]” value is reported as “the higher binding reaction”.

B3: KM3334: anti-FGF-8 neutralizing human chimeric antibody, VH SEQ ID NO. 5, VL SEQ ID NO. 6, human γ1/κ, YB2/0 cell-derived (antibody, listed as Mus musculus, V domains shown)
VH: QVQLQQSGAEVARPGASVKLSCKASGYTFTDYYLNWVKQRSGQGLEWIGEIDPGSDSIYYNENLEGRATLTADKSSSTAYMQLNSLTSEDSAVYFCARYGYSRYDVRFVYWGQGTLVTVST
VL: DVLMTQTPLSLPVSLGDQASISCRSSQSLVHSNGRTYLEWYLQKPGQSPKVLIYKVSNRISGVPDRFSGSGSGTDFTLKISRVEAEDLGVYFCFQGSHVPYTFGGGTKLEIK
B3: the “binding reaction [resonance signal (RU)]” value in test [1] was “the highest binding reaction”.

B4: HV0LV3-3/CHO: CHO/DG44 cell-derived anti-FGF-8 neutralizing CDR-grafted antibody, VH HV.0, VL LV.3-3 (SEQ ID NO. 51) (antibody, V domains shown)
VH: B1 VH
VL: B1 VL with T14S, P15L, L51V
For B4, the “FGF-8 neutralizing activity (SC-3 cell growth inhibitory activity)” value in test [2] is reported as “approximately half that of the chimeric antibody KM3034”. Also, the “binding reaction [resonance signal (RU)]” value in test [3] was “lower than that of the HV0LV3-1”.

B5: HV0LV4-3/CHO: CHO/DG44 cell-derived anti-FGF-8 neutralizing CDR-grafted antibody, VH HV.0, VL LV.4-3 (SEQ ID NO. 50) (antibody, V domains shown)
VH: B1 VH
VL: B1 VL with T14S, P15L, L51V, Y92F
For B5, the “FGF-8 neutralizing activity (SC-3 cell growth inhibitory activity)” value in test [2] is reported as “approximately half that of the chimeric antibody KM3034”. The “binding reaction [resonance signal (RU)]” value in test [3] was “the higher binding reaction than that of the HV0LV3-1/CHO and similar to that of the HV0LV6/CHO”.

B6: HV0LV6: YB2/0 cell-derived anti-FGF-8 neutralizing CDR-grafted antibody, VH HV.0 (SEQ ID NO. 18), VL LV.6 (SEQ ID NO. 21) (antibody, V domains shown)
VH: B1 VH
VL: B1 VL with I2V, T14S, P15L, Q50K, L51V, Y92F
modifications: HV.0, a designed amino acid sequence of VH of an anti-FGF-8 CDR-grafted neutralizing antibody; LV.6, a designed amino acid sequence of VL of an anti-FGF-8 CDR-grafted neutralizing antibody
Turning to B6, in test [1], the “binding reaction [resonance signal (RU)]” value is “the same high binding reaction as KM3334”.

B7: HV0LV3-1/CHO: CHO/DG44 cell-derived anti-FGF-8 neutralizing CDR-grafted antibody, VH HV.0, VL LV.3-1 (SEQ ID NO. 44) (antibody, V domains shown)
VH: B1 VH
VL: B1 VL with I2V, L51V, Y92F
In the case of B7, the “FGF-8 neutralizing activity (SC-3 cell growth inhibitory activity)” value in test [2] is recorded as “the next high FGF-8 neutralizing activity”. The “binding reaction [resonance signal (RU)]” value in test [3] is on record as “the higher binding reaction”.

B8: HV0LV4-1/CHO: CHO/DG44 cell-derived anti-FGF-8 neutralizing CDR-grafted antibody, VH HV.0, VL LV.4-1 (SEQ ID NO. 42) (antibody, V domains shown)
VH: B1 VH
VL: B1 VL with I2V, Q50K, L51V, Y92F
As to B8, the “FGF-8 neutralizing activity (SC-3 cell growth inhibitory activity)” value in test [2] was “slightly lower FGF-8 neutralizing activity than the HV0LV3-1/CHO”. In addition, in test [3], the “binding reaction [resonance signal (RU)]” value is “the higher binding reaction”.

(Values after patent publication US7708999B2, “Remedies for arthritis” (Kyowa Hakko Kirin Co., Ltd., priority 2001, dated 2010).)
